One experiment has as its target T1, pol30-79 (yeast, UniProt P15873 1-258, IDCL DIDADFLKIEEL to DIDADFAKAEEL).
T1 construct: PCNA (POL30), yeast; the changes are then L126A and I128A; also called PCNA79; source: yeast two-hybrid fusion (pAD-GAL4, strain YRG2)
T1 sequence: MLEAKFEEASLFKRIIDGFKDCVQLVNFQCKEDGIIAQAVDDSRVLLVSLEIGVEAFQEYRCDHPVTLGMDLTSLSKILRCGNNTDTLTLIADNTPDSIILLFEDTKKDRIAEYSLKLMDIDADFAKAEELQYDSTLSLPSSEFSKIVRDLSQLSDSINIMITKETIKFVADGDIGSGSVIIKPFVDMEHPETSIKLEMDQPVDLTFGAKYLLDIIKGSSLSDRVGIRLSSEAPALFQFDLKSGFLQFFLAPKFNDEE
Briefly: two-hybrid; quantitative Y2H: generation time of the YRG2 strains in liquid SC-Leu-Trp-His, given relative to cells expressing WT PCNA; average of at least 3 experiments. The settings on record: partners not purified.

Another experiment has as its target T2, pol30-Msh6E2 (yeast, UniProt P15873 1-258, IDCL DIDADFLKIEEL to DYDRDMLKISEL).
T2 construct: PCNA (POL30), yeast; source: yeast two-hybrid fusion (pAD-GAL4, strain YRG2)
T2 sequence: T1 sequence with I121Y, A123R, F125M, A126L, A128I, E129S
The experiment is described as above. The settings on record: partners not purified.

The next experiment concerns the target T3, pol30-Msh6E6 (yeast, UniProt P15873 1-258, IDCL DIDADFLKIEEL to DYDKDLLKIIEL).
T3 construct: PCNA (POL30), yeast; source: yeast two-hybrid fusion (pAD-GAL4, strain YRG2)
T3 sequence: T1 sequence with I121Y, A123K, F125L, A126L, A128I, E129I
The experiment is described as above. The settings on record: partners not purified.

Experiment [1] concerns the target T4, pol30-Rad30E9, 6×Histidine-tagged (yeast, UniProt P15873 1-258, IDCL DIDADFLKIEEL to DNDWDFLKIDEL).
T4 construct: PCNA (POL30), yeast, in pET28; also called Pol30-Rad30E9p; source: E. coli BL21, in cleared crude lysate (ELISA); purified by Ni-NTA (SPR)
T4 sequence: T1 sequence with I121N, A123W, A126L, A128I, E129D
In words: SPR; ProteOn XPR36; WT or mutant PCNA (0.4 to 5.2 fmol) immobilised on a GLM chip by carbodiimide-activated succinimide coupling; PIP peptides 5–5,000 nM at 30 µl/min; peptide buffer 150 mM NaCl, 1 mM EDTA, 0.01% Tween-80, 30 mM Hepes, pH 7.5. Conditions: both partners purified.

Experiment [2] addresses T5, pol30-Pol32E9, 6×Histidine-tagged (yeast, UniProt P15873 1-258, IDCL DIDADFLKIEEL to DNDVDSLKIIEL).
T5 construct: PCNA (POL30), yeast, in pET28; source: E. coli BL21, in cleared crude lysate (ELISA); purified by Ni-NTA (SPR)
T5 sequence: T1 sequence with I121N, A123V, F125S, A126L, A128I, E129I
The experiment is described as above. The settings on record: both partners purified.

Another experiment has as its target T6, pol30-Ung1E3 (yeast, UniProt P15873 1-258, IDCL DIDADFLKIEEL to DFDYDELKIEEL).
T6 construct: PCNA (POL30), yeast; source: yeast two-hybrid fusion (pAD-GAL4, strain YRG2)
T6 sequence: T1 sequence with I121F, A123Y, F125E, A126L, A128I
In words: two-hybrid; quantitative Y2H: generation time of the YRG2 strains in liquid SC-Leu-Trp-His, given relative to cells expressing WT PCNA; average of at least 3 experiments. The settings on record: partners not purified.

The next experiment addresses T7, pol30-Rad30E2 (yeast, UniProt P15873 1-258, IDCL DIDADFLKIEEL to DDDWDFLKILEL).
T7 construct: PCNA (POL30), yeast; source: yeast two-hybrid fusion (pAD-GAL4, strain YRG2)
T7 sequence: T1 sequence with I121D, A123W, A126L, A128I, E129L
Described as above. The settings on record: partners not purified.

In a further experiment the target is T8, pol30-Pol32E9 (yeast, UniProt P15873 1-258, IDCL DIDADFLKIEEL to DNDVDSLKIIEL).
T8 construct: PCNA (POL30), yeast; source: yeast two-hybrid fusion (pAD-GAL4, strain YRG2)
T8 sequence: T1 sequence with I121N, A123V, F125S, A126L, A128I, E129I
The description is as above. Conditions: partners not purified.

The target of the next experiment is T9, pol30-Pol32E5 (yeast, UniProt P15873 1-258, IDCL DIDADFLKIEEL to DADNDFLKISEL).
T9 construct: PCNA (POL30), yeast; source: yeast two-hybrid fusion (pAD-GAL4, strain YRG2)
T9 sequence: T1 sequence with I121A, A123N, A126L, A128I, E129S
Described as above. Conditions: partners not purified.

Where a chain is given by its changes, count along the chain named. Where no end group is shown, it is not given here.

B1: Msh6 (natural protein, yeast, UniProt Q03834 1-1242, looked up)
chain: MAPATPKTSKTAHFENGSTSSQKKMKQSSLLSFFSKQVPSGTPSKKVQKPTPATLENTATDKITKNPQGGKTGKLFVDVDEDNDLTIAEETVSTVRSDIMHSQEPQSDTMLNSNTTEPKSTTTDEDLSSSQSRRNHKRRVNYAESDDDDSDTTFTAKRKKGKVVDSESDEDEYLPDKNDGDEDDDIADDKEDIKGELAEDSGDDDDLISLAETTSKKKFSYNTSHSSSPFTRNISRDNSKKKSRPNQAPSRSYNPSHSQPSATSKSSKFNKQNEERYQWLVDERDAQRRPKSDPEYDPRTLYIPSSAWNKFTPFEKQYWEIKSKMWDCIVFFKKGKFFELYEKDALLANALFDLKIAGGGRANMQLAGIPEMSFEYWAAQFIQMGYKVAKVDQRESMLAKEMREGSKGIVKRELQCILTSGTLTDGDMLHSDLATFCLAIREEPGNFYNETQLDSSTIVQKLNTKIFGAAFIDTATGELQMLEFEDDSECTKLDTLMSQVRPMEVVMERNNLSTLANKIVKFNSAPNAIFNEVKAGEEFYDCDKTYAEIISSEYFSTEEDWPEVLKSYYDTGKKVGFSAFGGLLYYLKWLKLDKNLISMKNIKEYDFVKSQHSMVLDGITLQNLEIFSNSFDGSDKGTLFKLFNRAITPMGKRMMKKWLMHPLLRKNDIESRLDSVDSLLQDITLREQLEITFSKLPDLERMLARIHSRTIKVKDFEKVITAFETIIELQDSLKNNDLKGDVSKYISSFPEGLVEAVKSWTNAFERQKAINENIIVPQRGFDIEFDKSMDRIQELEDELMEILMTYRKQFKCSNIQYKDSGKEIYTIEIPISATKNVPSNWVQMAANKTYKRYYSDEVRALARSMAEAKEIHKTLEEDLKNRLCQKFDAHYNTIWMPTIQAISNIDCLLAITRTSEYLGAPSCRPTIVDEVDSKTNTQLNGFLKFKSLRHPCFNLGATTAKDFIPNDIELGKEQPRLGLLTGANAAGKSTILRMACIAVIMAQMGCYVPCESAVLTPIDRIMTRLGANDNIMQGKSTFFVELAETKKILDMATNRSLLVVDELGRGGSSSDGFAIAESVLHHVATHIQSLGFFATHYGTLASSFKHHPQVRPLKMSILVDEATRNVTFLYKMLEGQSEGSFGMHVASMCGISKEIIDNAQIAADNLEHTSRLVKERDLAANNLNGEVVSVPGGLQSDFVRIAYGDGLKNTKLGSGEGVLNYDWNIKRNVLKSLFSIIDDLQS
notes: Msh6 (mismatch repair), yeast; also called pBD-Msh6; source: yeast two-hybrid fusion (pBD-GAL4, strain YRG2)
For the molecule B1, the “fold change in affinity relative to WT PCNA (Y2H generation time)” value was determined as 0.4 fold in the experiment with pol30-79, 1.4 fold with pol30-Msh6E2 and 1.4 fold in the experiment with pol30-Msh6E6.
Regarding QKKQVTSSKNILSFFTRKK (also: biotinylated, site not given here) [PIP peptide derived from Rad30], in experiment [1], the “fold increase in binding affinity relative to WT PCNA (SPR)” value came to 8.5 fold.
With QGTLESFFKRKAK (also: biotinylated, site not given here) [PIP peptide derived from Pol32], the “fold increase in binding affinity relative to WT PCNA (SPR)” value in [2] worked out at 2 fold.

B2: Ung1 (natural protein, yeast, UniProt P12887 1-359, looked up)
chain: MWCMRRLPTNSVMTVARKRKQTTIEDFFGTKKSTNEAPNKKGKSGATFMTITNGAAIKTETKAVAKEANTDKYPANSNAKDVYSKNLSSNLRTLLSLELETIDDSWFPHLMDEFKKPYFVKLKQFVTKEQADHTVFPPAKDIYSWTRLTPFNKVKVVIIGQDPYHNFNQAHGLAFSVKPPTPAPPSLKNIYKELKQEYPDFVEDNKVGDLTHWASQGVLLLNTSLTVRAHNANSHSKHGWETFTKRVVQLLIQDREADGKSLVFLLWGNNAIKLVESLLGSTSVGSGSKYPNIMVMKSVHPSPLSASRGFFGTNHFKMINDWLYNTRGEKMIDWSVVPGTSLREVQEANARLESESKDP
notes: Ung1 (base excision repair), yeast; also called pBD-Ung1; source: yeast two-hybrid fusion (pBD-GAL4, strain YRG2)
For the molecule B2, the “fold change in affinity relative to WT PCNA (Y2H generation time)” value in the experiment with pol30-79 was 0.3 fold; with pol30-Ung1E3, 1.3 fold.

B3: Pol32 (natural protein, yeast, UniProt P47110 1-350, looked up)
chain: MDQKASYFINEKLFTEVKPVLFTDLIHHLKIGPSMAKKLMFDYYKQTTNAKYNCVVICCYKDQTIKIIHDLSNIPQQDSIIDCFIYAFNPMDSFIPYYDIIDQKDCLTIKNSYELKVSESSKIIERTKTLEEKSKPLVRPTARSKTTPEETTGRKSKSKDMGLRSTALLAKMKKDRDDKETSRQNELRKRKEENLQKINKQNPEREAQMKELNNLFVEDDLDTEEVNGGSKPNSPKETDSNDKDKNNDDLEDLLETTAEDSLMDVPKIQQTKPSETEHSKEPKSEEEPSSFIDEDGYIVTKRPATSTPPRKPSPVVKRALSSSKKQETPSSNKRLKKQGTLESFFKRKAK
notes: Pol32 (DNA polymerase subunit), yeast; also called pBD-Pol32; source: yeast two-hybrid fusion (pBD-GAL4, strain YRG2)
B3: the “fold change in affinity relative to WT PCNA (Y2H generation time)” value with pol30-Rad30E2 was 0.4 fold; with pol30-Pol32E9 it was 1.3 fold; with pol30-79, 0.3 fold; in the experiment with pol30-Pol32E5 it was 1.5 fold.

(Values after paper PMC2953525, “Subtle Alterations in PCNA-Partner Interactions Severely Impair DNA Replication and Repair” (PLoS Biology, 2010).)
